What all share (test): SPR, Biacore 8K, RBD on CM5 chip, IgG injected, 1:1 model
Assay [1] addresses T1, SARS-CoV-2 RBD protein E484Q mutant (SARS-CoV-2, UniProt P0DTC2 319-541).
T1 construct: domain: RBD

Assay [2] deals with T2, SARS-CoV-2 Delta variant RBD protein (L452R and T478K) (SARS-CoV-2, UniProt P0DTC2 319-541).
T2 construct: domain: RBD; also called L452R和T478K

In assay [3] the target is T3, SARS-CoV-2 Kappa variant RBD protein (L452R and E484Q) (SARS-CoV-2, UniProt P0DTC2 319-541).
T3 construct: domain: RBD; also called L452R和E484Q

For assay [4], the target named is T4, SARS-CoV-2 RBD protein T478K mutant (SARS-CoV-2, UniProt P0DTC2 319-541).
T4 construct: domain: RBD

Where a chain is given by its changes, count along the chain named.

B1: VacW-105 (antibody, V domains shown)
VH: QVQLVQSGAEVKKPGSSVKVSCKASGGTFRSYTISWVRQAPGQGLEWMGRILPILGIANYAQKFQGRVTITADKSTSTAYMELSSLRSEDTAVYYCARVTGAPVESAAWFDPWGQGTLVTVSS
VL: not shown
In general, Kd refers to the equilibrium constant for the complex coming apart. A low value points to tighter binding. B1: the Kd was found to be 5.22 nM in assay [1], 5.1 nM in assay [2], 4.13 nM in assay [3] and 3.37 nM in assay [4].

B2: VacW-201 (antibody, V domains shown)
VH: EVQLVESGGGLVQPGGSLRLSCAASGFTFSSYWMNWVRQAPGKGLEWVANIKQDGSEKYYVDSVKGRFTISRDNAKNSLYLQMNSLRAEDTAVYYCARMEYPYGGVDYWGQGTLVTVSS
VL: NFMLTQPHSVSESPGKTVTISCTGSSGSIASNYVQWYQQRPGSAPTTVIYEDNQRPSGVPDRFSGSIDSSSNSASLTISGLKTEDEADYYCQSYDSSNRNWVFGGGTKLTVL
In the case of B2, the dissociation constant (Kd) worked out at 2.25 nM in assay [1], 2.14 nM in assay [2], 1.71 nM in assay [3] and 1.64 nM in assay [4].

B3: VacW-215 (antibody, V domains shown)
VH: EVQLVESGGGLIQPGGSLRLSCAASGFTVSSNYMSWVRQAPGKGLEWVSVIYSGGSTYYADSVKGRFTISRDNSKNTLYLQMNSLRAEDTAVYYCARSTWLRGGFDYWGQGTLVTVSS
VL: B2 VL with R99H, N100F, W101Y, G105T, L109V
With B3, the Kd in assay [1] amounted to 0.967 nM; in assay [2], 1.02 nM; in assay [3], 0.676 nM; in assay [4], 0.683 nM.

B4: VacW-212 (antibody, V domains shown)
VH: B2 VH with G55E, Y80F, A88V, V106I, S119A
VL: B2 VL
Take B4: the Kd in assay [1] is 1.74 nM; in assay [2], 1.83 nM; in assay [3], 1.32 nM; in assay [4], 1.22 nM.

B5: VacW-138 (antibody, V domains shown)
VH: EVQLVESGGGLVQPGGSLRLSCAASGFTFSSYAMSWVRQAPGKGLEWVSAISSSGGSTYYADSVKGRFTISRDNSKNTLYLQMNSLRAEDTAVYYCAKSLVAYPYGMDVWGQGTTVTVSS
VL: AIQLTQSPFSLSASVGDRVTITCRASQGISSALAWYQQKPGKAPKLLIYDASSLESGVPSRFSGSGSGTDFTLTISSLQPEDFATYFCQQVDTYQFTFGPGTKVDIK
As to B5, the dissociation constant Kd came out at 3.12 nM in assay [1], 3.11 nM in assay [2], 3.17 nM in assay [3] and 1.75 nM in assay [4].

B6: VacW-209 (antibody, V domains shown)
VH: QVQLVESGGGVVQPGRSLRLSCAASGFTFSSIAMHWVRQAPGKGLEWVAVMSFDGSIKYYGDSVKGRFTISRDNSKSTLYLQMNSLRAEDTAVYYCARGVQGYYDRSGYYNLDYNYGMDVWGQGTTVTVSS
VL: QSVLTQPPSVSGAPGQRVTISCTGSSSNIGAGYDVHWYQQLPGTAPKLLIYGNSNRPSGVPDRFSGSKSGTSASLAITGLQAEDEADYYCQSYDSSLSGWVFGGGTKLTVL
Take B6: the Kd is 0.033 nM in assay [1], 0.0467 nM in assay [2], 0.0234 nM in assay [3] and 0.023 nM in assay [4].
